In publication PMC5399442, “Fatty acid synthase cooperates with protrudin to facilitate membrane outgrowth of cellular protrusions” (Scientific Reports, 2017):

B1: wild-type protrudin with a C-terminal myc tag (natural protein, human, UniProt Q5T4F4-2 1-404, looked up)
chain: MQTSEREGSGPELSPSVMPEAPLESPPFPTKSPAFDLFNLVLSYKRLEIYLEPLKDAGDGVRYLLRWQMPLCSLLTCLGLNVLFLTLNEGAWYSVGALMISVPALLGYLQEVCRARLPDSELMRRKYHSVRQEDLQRGRLSRPEAVAEVKSFLIQLEAFLSRLCCTCEAAYRVLHWENPVVSSQFYGALLGTVCMLYLLPLCWVLTLLNSTLFLGNVEFFRVVSEYRASLQQRMNPKQEEHAFESPPPPDVGGKDGLMDSTPALTPTEDLTPGSVEEAEEAEPDEEFKDAIEEDDEGAPCPAEDELALQDNGFLSKNEVLRSKVSRLTERLRKRYPTNNFGNCTGCSATFSVLKKRRSCSNCGNSFCSRCCSFKVPKSSMGATAPEAQRETVFVCASCNQTLSK
notes: protrudin (ZFYVE27), human, from cDNA; also called WT-protrudin; protrudin-myc; source: HEK293T, transfected (pcDNA3.1-protrudin-myc), in lysate; not shown: c-Myc, C-terminal, kept
B2: protrudin with DiZPK incorporated at site D134, C-terminal myc tag (natural protein, human, UniProt Q5T4F4-2 1-404, looked up)
chain: MQTSEREGSGPELSPSVMPEAPLESPPFPTKSPAFDLFNLVLSYKRLEIYLEPLKDAGDGVRYLLRWQMPLCSLLTCLGLNVLFLTLNEGAWYSVGALMISVPALLGYLQEVCRARLPDSELMRRKYHSVRQEKLQRGRLSRPEAVAEVKSFLIQLEAFLSRLCCTCEAAYRVLHWENPVVSSQFYGALLGTVCMLYLLPLCWVLTLLNSTLFLGNVEFFRVVSEYRASLQQRMNPKQEEHAFESPPPPDVGGKDGLMDSTPALTPTEDLTPGSVEEAEEAEPDEEFKDAIEEDDEGAPCPAEDELALQDNGFLSKNEVLRSKVSRLTERLRKRYPTNNFGNCTGCSATFSVLKKRRSCSNCGNSFCSRCCSFKVPKSSMGATAPEAQRETVFVCASCNQTLSK
modifications: DiZPK (3-(3-methyl-3H-diazirin-3-yl)-propamino-carbonyl-Nε-L-lysine) at position 134
notes: protrudin (ZFYVE27), human; codon of D134 changed to the amber codon (TAG) and read as DiZPK, a lysine derivative; The new residue is written as K because DiZPK is an Nε-modified lysine; source: HEK293T, transfected with the MbPylRS/MbtRNACUA pair, cultured with DiZPK, in lysate; not shown: c-Myc, C-terminal, kept

How the values were obtained:
[1] = molecular target: the molecule itself; test: SDS-resistant dimer on SDS-PAGE with immunoblot; HEK293T cells expressing WT-protrudin exposed to UV light (365 nm) as control; SDS-PAGE and immunoblot with anti-Myc antibody
[2] = molecular target: the molecule itself; test: cross-linking; photo-crosslinking by DiZPK in living HEK293T cells, 48 h after transfection, UV 365 nm for 10 min; SDS-PAGE and immunoblot with anti-Myc antibody

Protein	stoichiometry N [1]	stoichiometry N [2]
B1	2	–
B2	–	2
